We go through 1 molecule from article PMC2597655.

The target in series [1] is DNA polymerase beta I260Q (UniProt P06766 1-335, I260Q). The series can be described thus: EMSA. (In general: Mobility shift assays separate free from complexed probe on a gel.)
A further series addresses DNA polymerase beta WT (UniProt P06766 1-335). The series can be described thus: EMSA.

B1: CII5T A:A (5 nt gap, mispaired primer terminus) (dsDNA)
DNA 1: TTGCGACTTATCAACGCCCACAA
DNA 2: GCTGTCTTCTCAGTTTC
DNA 3: GAAACTGAGAAGACAGCTACTGATGTGGGCGTTGATAAGTCGCAA
modifications: 5'-phosphate on downstream oligo and template
Consider B1, for which the Kd (commonly the free concentration of one partner at which half of the binding sites on the other are occupied at equilibrium, for simple one-to-one binding) in series [1] worked out at 2 nM; with DNA polymerase beta WT, 6 nM.
